Reference: paper PMC5421877, “SOCS3 inhibits the pathological effects of IL-22 in non-melanoma skin tumor-derived keratinocytes” (Oncotarget, 2017)

Test system: Jak1 phosphorylation
Experiment: IP/WB of Jak1 phosphorylation in healthy keratinocytes (IL-22)
Assay type: cell-based, human
Settings: IL-22 10 min, no peptide, n = 3
Protocol: Figure 5 KIR-ESS peptide inhibits IL-22-induced phosphorylation of STAT3 and Erk in healthy and SCC-derived keratinocytes (A) Protein extracts obtained from healthy keratinocytes (n = 3) pre-treated or not with 15 μM (left panel) or 75 μM (right panel), KIR, KIR-ESS and control (Ctrl1 or Ctrl2) peptides, and, then, stimulated or not with IL-22 for 20 min, were subjected to WB analysis to detect STAT3 (Tyr705), Erk and MEK phosphorylation. Filters were probed with anti-STAT3, -Erk and –MEK Abs (top). (B) Protein extracts obtained from healthy keratinocytes (n = 3) pre-treated or not with 75 μM KIR-ESS and control (Ctrl1) peptides, and, then, stimulated or not with IL-22 for 10 min, were subjected to immunoprecipitation for IL-22R1 and Jak1, and then analysed by WB to detect phosphorylated and unphosphorylated forms of the proteins. (C) Unphosphorylated and phosphorylated forms of STAT1 (Tyr701) and STAT3 (Tyr705) were monitored in keratinocytes treated with IFN-γ for 15 min by WB analysis (bottom). In all experimental groups, filters were stripped and re-probed with β-actin Ab. (D) Protein extracts were obtained from CAL27 (left panel) or CAL33 (right panel) lines treated or not with 75 μM peptides in presence of IL-22 or IFN-γ. WB was performed to detect basal and phosphorylated STAT1, STAT3 and Erk. […]

B1: IL-22: cytokine stimulus, R&D Systems (protein, UniProt Q9GZX6 34-179, looked up)
Interleukin-22: APISSHCRLDKSNFQQPYITNRTFMLAKEASLADNNTDVRLIGEKLFHGVSMSERCYLMKQVLNFTLEEVLFPQSDRFQPYMQEVVPFLARLSNRLSTCHIEGDDLHIQRNVQKLKDTVKKLGESGEIKAIGELDLLFMSLRNACI
Jak1 phosphorylation induced: induced molecular cascade implicating phosphorylation of IL-22R1, Tyk2 and Jak1
